Paper PMC9541495, “Understanding the interaction of 14‐3‐3 proteins with hDMX and hDM2: a structural and biophysical study” (The Febs Journal, 2022)
[ ]: non-standard residue; d: D form. pS = N[C@@H](COP(=O)(O)O)C(=O)O; FAM = 5,6-carboxyfluorescein; Ahx = NCCCCCC(=O)O

T1: 14‐3‐3η (human, UniProt Q04917 1-246)
T1 construct: 14-3-3 eta, human, full-length protein from the pProEx HTb-His-14-3-3 construct; Captured on an NTA chip in SPR; source: E. coli BL21(DE3), purified (Ni2+-NTA, dialysis)
T1 sequence (looked up): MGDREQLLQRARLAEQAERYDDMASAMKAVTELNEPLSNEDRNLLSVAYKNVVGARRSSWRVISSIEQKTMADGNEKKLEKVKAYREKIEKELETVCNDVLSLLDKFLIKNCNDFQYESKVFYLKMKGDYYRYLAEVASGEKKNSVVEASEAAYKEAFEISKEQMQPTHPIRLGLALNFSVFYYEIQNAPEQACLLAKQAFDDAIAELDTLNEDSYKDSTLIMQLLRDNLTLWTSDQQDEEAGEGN

T2: 14‐3‐3ζ (human, UniProt P63104 1-245)
T2 construct: 14-3-3 zeta, human, full-length protein from the pProEx HTb-His-14-3-3 construct; Written as the protomer; tag removal is told only for the ∆C proteins; source: E. coli BL21(DE3), purified (Ni2+-NTA, dialysis)
T2 sequence (looked up): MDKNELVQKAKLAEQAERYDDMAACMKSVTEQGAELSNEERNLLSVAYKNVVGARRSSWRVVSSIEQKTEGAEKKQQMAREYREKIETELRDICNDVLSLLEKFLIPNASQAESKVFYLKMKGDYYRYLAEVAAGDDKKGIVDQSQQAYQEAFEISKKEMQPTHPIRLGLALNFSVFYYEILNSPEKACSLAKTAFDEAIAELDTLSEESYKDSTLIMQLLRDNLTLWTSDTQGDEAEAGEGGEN

T3: 14‐3‐3τ (human, UniProt P27348 1-245)
T3 construct: 14-3-3 tau/theta, human, full-length protein from the pProEx HTb-His-14-3-3 construct; Written as the protomer; tag removal is told only for the ∆C proteins; also called τ/θ; source: E. coli BL21(DE3), purified (Ni2+-NTA, dialysis)
T3 sequence (looked up): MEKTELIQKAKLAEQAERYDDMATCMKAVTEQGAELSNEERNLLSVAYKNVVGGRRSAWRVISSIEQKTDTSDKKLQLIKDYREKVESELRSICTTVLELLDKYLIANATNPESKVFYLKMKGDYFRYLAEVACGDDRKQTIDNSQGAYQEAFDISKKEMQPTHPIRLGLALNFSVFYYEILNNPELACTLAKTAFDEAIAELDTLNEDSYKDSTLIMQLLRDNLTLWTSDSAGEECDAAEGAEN

T4: 14‐3‐3ε (human, UniProt P62258 1-255)
T4 construct: 14-3-3 epsilon, human, full-length protein from the pProEx HTb-His-14-3-3 construct; Written as the protomer; tag removal is told only for the ∆C proteins; source: E. coli BL21(DE3), purified (Ni2+-NTA, dialysis)
T4 sequence (looked up): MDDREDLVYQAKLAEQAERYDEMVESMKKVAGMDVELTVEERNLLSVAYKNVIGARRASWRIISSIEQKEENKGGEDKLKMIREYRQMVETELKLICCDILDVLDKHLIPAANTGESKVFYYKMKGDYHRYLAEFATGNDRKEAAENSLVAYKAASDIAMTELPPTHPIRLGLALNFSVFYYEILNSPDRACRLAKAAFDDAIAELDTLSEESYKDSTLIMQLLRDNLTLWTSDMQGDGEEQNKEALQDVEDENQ

T5: 14‐3‐3σ (human, UniProt P31947 1-248)
T5 construct: 14-3-3 sigma, human, full-length protein from the pProEx HTb-His-14-3-3 construct (used in the FA assays); Written as the protomer; tag removal is told only for the ∆C proteins; source: E. coli BL21(DE3), purified (Ni2+-NTA, dialysis)
T5 sequence (looked up): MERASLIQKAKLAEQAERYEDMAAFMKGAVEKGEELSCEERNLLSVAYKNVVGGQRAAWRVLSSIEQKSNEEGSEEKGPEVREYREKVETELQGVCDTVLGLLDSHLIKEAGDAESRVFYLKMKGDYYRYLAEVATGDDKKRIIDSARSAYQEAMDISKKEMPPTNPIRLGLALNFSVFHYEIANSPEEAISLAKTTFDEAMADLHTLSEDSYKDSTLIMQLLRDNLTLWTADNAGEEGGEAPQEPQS

B1: 14‐3‐3γ (natural protein, human, UniProt P61981 1-247, looked up)
chain: MVDREQLVQKARLAEQAERYDDMAAAMKNVTELNEPLSNEERNLLSVAYKNVVGARRSSWRVISSIEQKTSADGNEKKIEMVRAYREKIEKELEAVCQDVLSLLDNYLIKNCSETQYESKVFYLKMKGDYYRYLAEVATGEKRATVVESSEKAYSEAHEISKEHMQPTHPIRLGLALNYSVFYYEIQNAPEQACHLAKTAFDDAIAELDTLNEDSYKDSTLIMQLLRDNLTLWTSDQQDDDGGEGNN
notes: 14-3-3 gamma, human, full-length protein from the pProEx HTb-His-14-3-3 construct; Written as the protomer; tag removal is told only for the ∆C proteins; source: E. coli BL21(DE3), purified (Ni2+-NTA, dialysis)
B2: Ac‐hDMX_(361‐374) ^pSer367 (peptide)
peptide: Ac-DCRRTI[pS]APVVRPK-NH2
SMILES: CC[C@H](C)[C@H](NC(=O)[C@@H](NC(=O)[C@H](CCCNC(=N)N)NC(=O)[C@H](CCCNC(=N)N)NC(=O)[C@H](CS)NC(=O)[C@H](CC(=O)O)NC(C)=O)[C@@H](C)O)C(=O)N[C@@H](COP(=O)(O)O)C(=O)N[C@@H](C)C(=O)N1CCC[C@H]1C(=O)N[C@H](C(=O)N[C@H](C(=O)N[C@@H](CCCNC(=N)N)C(=O)N1CCC[C@H]1C(=O)N[C@@H](CCCCN)C(N)=O)C(C)C)C(C)C
notes: Acetylated form used for ITC, SPR and crystallography; source: synthetic peptide (Fmoc SPPS, HPLC purified)
B3: Ac‐hDMX_(335‐373) ^pSer342/pSer367 (peptide)
peptide: Ac-SKLTHSL[pS]TSDITAIPEKENEGNDVPDCRRTI[pS]APVVRP-NH2
SMILES: CC[C@H](C)[C@H](NC(=O)[C@H](CC(=O)O)NC(=O)[C@H](CO)NC(=O)[C@@H](NC(=O)[C@H](COP(=O)(O)O)NC(=O)[C@H](CC(C)C)NC(=O)[C@H](CO)NC(=O)[C@H](Cc1c[nH]cn1)NC(=O)[C@@H](NC(=O)[C@H](CC(C)C)NC(=O)[C@H](CCCCN)NC(=O)[C@H](CO)NC(C)=O)[C@@H](C)O)[C@@H](C)O)C(=O)N[C@H](C(=O)N[C@@H](C)C(=O)N[C@H](C(=O)N1CCC[C@H]1C(=O)N[C@@H](CCC(=O)O)C(=O)N[C@@H](CCCCN)C(=O)N[C@@H](CCC(=O)O)C(=O)N[C@@H](CC(N)=O)C(=O)N[C@@H](CCC(=O)O)C(=O)NCC(=O)N[C@@H](CC(N)=O)C(=O)N[C@@H](CC(=O)O)C(=O)N[C@H](C(=O)N1CCC[C@H]1C(=O)N[C@@H](CC(=O)O)C(=O)N[C@@H](CS)C(=O)N[C@@H](CCCNC(=N)N)C(=O)N[C@@H](CCCNC(=N)N)C(=O)N[C@H](C(=O)N[C@H](C(=O)N[C@@H](COP(=O)(O)O)C(=O)N[C@@H](C)C(=O)N1CCC[C@H]1C(=O)N[C@H](C(=O)N[C@H](C(=O)N[C@@H](CCCNC(=N)N)C(=O)N1CCC[C@H]1C(N)=O)C(C)C)C(C)C)[C@@H](C)CC)[C@@H](C)O)C(C)C)[C@@H](C)CC)[C@@H](C)O
notes: hDMX (human double minute 4 protein, hDM4), human, residues 335-373; Acetylated form used for ITC, SPR and crystallography; source: synthetic peptide (Fmoc SPPS on Rink amide ProTide resin, HPLC purified)
B4: 14‐3‐3β (natural protein, human, UniProt P31946 1-246, looked up)
chain: MTMDKSELVQKAKLAEQAERYDDMAAAMKAVTEQGHELSNEERNLLSVAYKNVVGARRSSWRVISSIEQKTERNEKKQQMGKEYREKIEAELQDICNDVLELLDKYLIPNATQPESKVFYLKMKGDYFRYLSEVASGDNKQTTVSNSQQAYQEAFEISKKEMQPTHPIRLGLALNFSVFYYEILNSPEKACSLAKTAFDEAIAELDTLNEESYKDSTLIMQLLRDNLTLWTSENQGDEGDAGEGEN
notes: 14-3-3 beta, human, full-length protein from the pProEx HTb-His-14-3-3 construct; Written as the protomer; tag removal is told only for the ∆C proteins; source: E. coli BL21(DE3), purified (Ni2+-NTA, dialysis)
B5: FAM‐Ahx‐hDMX_(335‐373) ^pSer342/pSer367 (peptide)
peptide: {FAM-Ahx}-SKLTHSL[pS]TSDITAIPEKENEGNDVPDCRRTI[pS]APVVRP-NH2
notes: hDMX (human double minute 4 protein, hDM4), human, residues 335-373; Tracer form used in the FA assays; source: synthetic peptide (Fmoc SPPS on Rink amide ProTide resin, HPLC purified)
B6: Ac‐hDMX_(335‐349) ^pSer342 (peptide)
peptide: Ac-SKLTHSL[pS]TSDITAI-NH2
SMILES: CC[C@H](C)[C@H](NC(=O)[C@H](C)NC(=O)[C@@H](NC(=O)[C@@H](NC(=O)[C@H](CC(=O)O)NC(=O)[C@H](CO)NC(=O)[C@@H](NC(=O)[C@H](COP(=O)(O)O)NC(=O)[C@H](CC(C)C)NC(=O)[C@H](CO)NC(=O)[C@H](Cc1c[nH]cn1)NC(=O)[C@@H](NC(=O)[C@H](CC(C)C)NC(=O)[C@H](CCCCN)NC(=O)[C@H](CO)NC(C)=O)[C@@H](C)O)[C@@H](C)O)[C@@H](C)CC)[C@@H](C)O)C(N)=O
notes: hDMX (human double minute 4 protein, hDM4), human, residues 335-349; Acetylated form used for ITC and SPR; source: synthetic peptide (Fmoc SPPS, HPLC purified)

Experiments:
Details in all cases: both partners purified
[1] = molecular target: B5; experiment: fluorescence polarisation; fluorescence anisotropy, direct titration: 14-3-3 protein titrated (1/2 dilution series) against 50 nM FAM-Ahx tracer peptide; 10 mM HEPES, 150 mM NaCl, 0.1% Tween 20, 0.1% BSA, pH 7.4; 384 well plates, triplicates; protein concentration as 14-3-3 monomer; 1:1 fit, biphasic curves fitted as two separate 1:1 events (Kd1, Kd2)
[2] = molecular target: T6, FAM‐Ahx‐hDM2_(160‐192) ^pSer166/pSer186 (human, phosphoserine at 166 and at 186; N-terminal FAM-Ahx (5,6-carboxyfluorescein on an aminohexanoic acid linker); C-terminal amide); experiment: as above
T6 construct: hDM2 (human double minute 2 protein), human, residues 160-192; Tracer form used in the FA assays; source: synthetic peptide (Fmoc SPPS on Rink amide ProTide resin, HPLC purified)

14‐3‐3η [3] = molecular target: T1, 14‐3‐3η; experiment: ITC; acetylated peptide in the syringe titrated into 14-3-3η in the cell; 25 °C; 25 mM HEPES pH 7.5, 100 mM NaCl, 10 mM MgCl2, 0.5 mM TCEP; MicroCal iTC200
14‐3‐3η [4] = molecular target: T1, 14‐3‐3η; experiment: SPR; 14-3-3η immobilised on an NTA sensor chip (Ni2+ capture and amine coupling, about 2000 RU); acetylated peptides injected, 11 serial dilutions from 10x the FA Kd; 25 °C; Biacore T200; multicycle kinetics fitted to a Langmuir model, Kd from steady state dose-response
14‐3‐3ζ = molecular target: T2, 14‐3‐3ζ; experiment: fluorescence polarisation; fluorescence anisotropy, direct titration: 14-3-3 protein titrated (1/2 dilution series) against 50 nM FAM-Ahx tracer peptide; 10 mM HEPES, 150 mM NaCl, 0.1% Tween 20, 0.1% BSA, pH 7.4; 384 well plates, triplicates; protein concentration as 14-3-3 monomer; 1:1 fit, biphasic curves fitted as two separate 1:1 events (Kd1, Kd2)
14‐3‐3τ = molecular target: T3, 14‐3‐3τ; experiment: as above
14‐3‐3ε = molecular target: T4, 14‐3‐3ε; experiment: as above
14‐3‐3σ = molecular target: T5, 14‐3‐3σ; experiment: as above

Binder: B1
- Kd1 (first binding event) [1]: 0.091 ± 0.015 µM
- Kd1 (first binding event) [2]: 0.089 ± 0.01 µM

Binder: B2
- Kd (14‐3‐3η [3]): 870 ± 95 nM
- dH (14‐3‐3η [3]): -16.1 ± 0.2 kJ/mol
- stoichiometry N (14‐3‐3η [3]): 1.28
- Kd (14‐3‐3η [4]): 189 nM
- koff (14‐3‐3η [4]): 0.121 s⁻¹
- kon (14‐3‐3η [4]): 389000 M⁻¹ s⁻¹

Binder: B3
- Kd (14‐3‐3η [3]): 14 ± 10 nM
- dH (14‐3‐3η [3]): -22.1 ± 0.7 kJ/mol
- stoichiometry N (14‐3‐3η [3]): 0.94
- Kd (14‐3‐3η [4]): 8.6 nM
- koff (14‐3‐3η [4]): 0.0048 s⁻¹
- kon (14‐3‐3η [4]): 1.51e+06 M⁻¹ s⁻¹

Binder: B4
- Kd1 (first binding event) [1]: 0.026 ± 0.099 µM

Binder: B5
- binding result (14‐3‐3ζ): binds
- binding result (14‐3‐3τ): binds
- binding result (14‐3‐3ε): binds
- binding result (14‐3‐3σ): binds

Binder: B6
- Kd (14‐3‐3η [3]): 21000 ± 3000 nM
- dH (14‐3‐3η [3]): -21.4 ± 1 kJ/mol
- stoichiometry N (14‐3‐3η [3]): 0.72
- Kd (14‐3‐3η [4]): 37000 nM
